# Assay results taken from patent US20240270841A1 (LG CHEM, published 2024).
# What was measured:
# [1] = molecular target: T1, LILRB1 expressed on the surface of human natural killer cell KHYG-1 (human, UniProt Q8NHL6 24-650); experiment: flow cytometry (iQue) on KHYG-1 NK cells, antibody 50 ug/mL
# T1 construct: whole, on cells; also called LILRB1 on KHYG-1 cells; human NK cells (surface)
# Method: In order to test whether or not 93 antibodies selected in Example 1.4 bind LILRB1 expressed on surface of immune cells, natural killer cell (NK cell) surface binding assay was performed. A human NK cell, KHYG-1 cell (JCRB) was cultured in RPMI 1640 medium (Gibco) supplemented with 10%(w/v) of FBS (Gibco) and 100 U/mL of interleukin-2 (Novartis). KHYG-1 cells were added to a U-bottom 96-well tissue culture plate (BD Falcon) at the amount of 5×10⁴ cells/well. Each of the selected antibodies was added to the well to the final concentration of 50 μg/mL per well and incubated at 4° C. for 1 hour.
# In order to see the level of LILRB1-specific binding of the selected antibodies, a human IgG4 isotype control antibody (Biolegend) was treated in the same manner. After washing with FACS buffer, the cells were treated with an anti-human Fc-biotin antibody (life technologies) and incubated at 4° C. for 1 hour. After washing with FACS buffer, the cells were treated with streptavidin PE (BD Pharmigen) and incubated at 4° C. for 30 minutes. After washing with FACS buffer, the cells were resuspended and subjected to analysis using iQue screener (Sartorius).
# [2] = molecular target: T2, human LILRB1 protein (LILRB1-His, RnD systems Cat. No. 8989-T2) (human, UniProt Q8NHL6 24-458); experiment: SPR (Biacore T200), antibody captured by anti-human IgG (Fc), LILRB1-His injected
# T2 construct: Bought protein; also called human LILRB1-His; not shown: His tag
# Method: The binding affinities of the 93 antibodies, which were selected in Example 1.3, to the antigen, LILRB1, were measured using Biacore T200 (GE healthcare). An anti-human IgG (Fc) antibody (GE healthcare, Cat. No. BR-1008-39, final concentration of 25 μg/mL) was flowed at the flow rate of 5 μL/min for 360 seconds to be immobilized at 5000-7000 RU on Series S Sensor Chip CM5 (GE healthcare, Cat. No. BR-1005-30) using Amine Coupling Kit (GE healthcare, Cat. No. BR-1000-508).
# T2 sequence (Q8NHL6 24-458 limits assumed): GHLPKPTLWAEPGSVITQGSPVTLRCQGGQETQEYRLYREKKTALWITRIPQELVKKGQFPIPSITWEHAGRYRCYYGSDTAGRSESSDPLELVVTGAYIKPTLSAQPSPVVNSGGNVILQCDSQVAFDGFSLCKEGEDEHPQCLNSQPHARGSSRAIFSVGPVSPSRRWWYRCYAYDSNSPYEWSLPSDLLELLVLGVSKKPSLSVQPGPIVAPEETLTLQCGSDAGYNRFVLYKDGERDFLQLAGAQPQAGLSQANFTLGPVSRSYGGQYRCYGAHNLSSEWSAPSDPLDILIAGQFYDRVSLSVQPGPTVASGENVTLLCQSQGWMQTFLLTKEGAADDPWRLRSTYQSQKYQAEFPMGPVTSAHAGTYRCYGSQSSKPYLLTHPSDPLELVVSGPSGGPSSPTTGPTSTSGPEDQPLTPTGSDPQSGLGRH
# T1 sequence (Q8NHL6 24-650): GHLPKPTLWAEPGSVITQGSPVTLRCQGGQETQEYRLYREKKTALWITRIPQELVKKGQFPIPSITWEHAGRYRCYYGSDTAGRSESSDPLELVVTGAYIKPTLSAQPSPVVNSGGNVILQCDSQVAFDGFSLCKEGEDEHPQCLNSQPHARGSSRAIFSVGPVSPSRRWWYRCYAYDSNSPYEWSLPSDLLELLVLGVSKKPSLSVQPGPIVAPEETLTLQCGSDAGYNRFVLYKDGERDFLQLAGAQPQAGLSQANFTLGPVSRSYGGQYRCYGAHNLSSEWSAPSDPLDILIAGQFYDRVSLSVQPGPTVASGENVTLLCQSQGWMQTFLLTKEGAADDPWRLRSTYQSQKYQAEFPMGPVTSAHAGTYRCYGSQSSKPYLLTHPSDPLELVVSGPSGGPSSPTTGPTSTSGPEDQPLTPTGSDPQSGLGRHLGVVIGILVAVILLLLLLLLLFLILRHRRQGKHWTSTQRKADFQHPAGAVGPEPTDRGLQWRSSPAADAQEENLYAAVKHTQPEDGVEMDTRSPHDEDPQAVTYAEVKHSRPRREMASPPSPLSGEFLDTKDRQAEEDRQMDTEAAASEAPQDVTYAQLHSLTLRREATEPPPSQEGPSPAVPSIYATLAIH
Binder,% of population 2 [1] [%],Mean Fluorescence Intensity [1],Kd [2] [nM],koff [2] [s⁻¹],kon [2] [M⁻¹ s⁻¹]
"anti-LILRB1 antibody A10 (antibody, human IgG4 S228P, V domains shown, human IgG4, kappa light chain; also called Antibody clone A10) VH: QMQLVQSGAEVKKPGSSVKVSCKASGGTFSSYAISWVRQAPGQGLEWMGGIIPIFGTANYAQKFQGRVTITADKSISTAYMELSSLRSEDTAVYYCARGGLGELDNWFDPWGQGTLVTVSS VL: DIVMTQSPATLSVSPGERATLSCRASQSVSSNLAWYQQKPGQAPRLLIYGASTRATGIPARFSGSGSGTEFTLTISSLQSEDFAVYYCQQYGSSPRMYTFGQGTKVDIKR",28.7,223000,152,0.00765,50400
"anti-LILRB1 antibody B9 (antibody, V domains shown, human IgG4, kappa light chain; also called Antibody clone B9) VH: QVQLVESGAEVKKPGSSVKVSCKASGGTFSSYAISWVRQAPGQGLEWMGGIIPIFGTANYAQKFQGRVTITADESTSTAYMELSSLRSEDTAVYYCARGEIAVAQNWDYYGMDVWGQGTLVTVSS VL: DIQMTQSPSSLSASVGDRVTITCRASQSISRYLNWYQQKPGKAPKLLIYGASSLQSGVPSRFSGSGSGTDFTLTISSLQPEDFATYHCQQAYGFPLTLGGGTKVEIKR",–,–,66.1,0.000616,9320
"anti-LILRB1 antibody B12 (antibody, V domains shown, human IgG4, kappa light chain; also called Antibody clone B12) VH: QVQLVQSGAEVKKPGASVKVSCKASGYTFTGYYMHWVRQAPGQGLEWMGWINPNSGGTNYAQKFQGRVTITADESTSTAYMELSSLRSEDTAVYYCTRAGASIVGATALDYWGQGTLVTVSS VL: not shown",–,–,7.84,0.00144,184000
"anti-LILRB1 antibody D1 (antibody, human IgG4 S228P, V domains shown, human IgG4, kappa light chain; also called Antibody clone D1) VH: EVQLVQSGAEVKKPGASVKVSCKASGYTFTSYGISWVRQAPGQGLEWMGWINPNSGGTNYAQKFQGRVTMTRDTSISTAYMELSRLRSDDTAVYYCASRGVDEGDYWGQGTMVTVSS VL: ETTLTQSPAFMSATPGDKVNISCKASQDIDDDMNWYQQKPGEAAISIIQEASTLVPGIPPRFSGSGYGTDFTLTINNIESEDAAYYFCLQHDKFPYTFGQGTKLEIKR",–,–,49.3,0.00574,116000
"anti-LILRB1 antibody D3 (antibody, human IgG4 S228P, V domains shown, human IgG4; also called Antibody clone D3) VH: EVQLLESGGGVVQPGRSLRLSCAASGSTFSSYAMSWVRQAPGKGLEWVSAISGSGGSTYYADSVKGRFTISRDNSKNTLYLQMNSLRAEDTAVYYCAKDRGSYGYYYGMDVWGQGTMVTVSS VL: not shown",–,–,180,0.000558,3110
"anti-LILRB1 antibody E3 (antibody, human IgG4 S228P, human IgG4, lambda light chain; also called Antibody clone E3) heavy: not shown light: SYELTQDPAVSVALGQTVRITCQGDSLRNFYASWYQQKSGQAPVLVMYGKNNRPSGIPDRFSGSTSGNTASLTITGAQAEDEADYYCNSRDSSGSHLTGVFGGGTKVTVLGQPAAAPSVTLFPPSSEELQANKATLVCLISDFYPGAVTVAWKADSSPVKAGVETTTPSKQSNNKYAASSYLSLTPEQWKSHRSYSCQVTHEGSTVEKTVAPTECS",40.2,269000,101,0.0035,34600
"anti-LILRB1 antibody E4 (antibody, human IgG4 S228P, V domains shown, human IgG4, lambda light chain; also called Antibody clone E4) VH: QVQLVQSGAEVKKPGSSVKVSCKASGGTFSSYTISWVRQAPGQGLEWMGRIIPILGIANYAQKFQGRVTMTRDMSTDTAYMELSSLTYDDTAVYFCVRGPSLNYAGYFDNWGQGTLVTVSS VL: NFMLTQPHSVSESPGKTVTISCTRSSGSIASNYVQWYQQRPGSSPTTVIYEDNQRPSGVPDRFSGSIDSSSNSASLTISGLKTEDEADYYCQSYDTGNRNYVFGTGTQLTVLG",43.2,272000,72.5,0.000773,10600
"anti-LILRB1 antibody E6 (antibody, human IgG4 S228P, V domains shown, human IgG4, lambda light chain; also called Antibody clone E6) VH: QVQLVQSGAEVKKPGASVKVSCKASGYTFTTYDITWVRQAPGQGLEWMGWMNPNSGNSRSAQKFQGRVSMTSDSSISTAYMELSSLRSEDTAVYYCATGDYSGVVLTATALDYWGQGTLVTVSS VL: NFMLTQPHSVSESPGKTVTLSCTGSSGNIASNYVQWYQHRPGSAPTTVIYRDDQRPSGVPDRFSGSIDSSSNSASLTISGLRPEDEADYYCQSYDSSSWVFGGGTKLTVLG",–,–,60.7,0.00163,26800
"anti-LILRB1 antibody E9 (antibody, human IgG4 S228P, V domains shown, human IgG4, lambda light chain; also called Antibody clone E9) VH: QVQLVESGGGLVQPGRSLRLSCAASGFTFSSYGMHWVRQAPGKGLEWVANIKQDGSEKYYVDSVKGRFTISRDNAKNTLYLQMNSLRAEDTAVYYCAREDRIAAAGMRELDYWGQGTLVTVSS VL: QSELTQLPSASETPGQRVTISCSGSSSNIGNNYVYWYQQLPGTAPKLLIYRNNQRPSGVPDRFSGSKSGTSASLAISGLRSEDEADYYCAAWDDSLSGWVFGGGTKLTVLG",–,–,99.9,0.00105,10500
"anti-LILRB1 antibody E12 (antibody, human IgG4 S228P, V domains shown, human IgG4, lambda light chain; also called Antibody clone E12) VH: QVQLVESGGGLVQPGGSLRLSCAASGFTFSSYAMHWVRQAPGKGLEWVAVISYDGSNKYYADSVKGRFTISRDNSKNTLYLQMNSLRAEDTAVYYCARERGSGMDVWGQGTLVTVSS VL: SYELTQDPAVSVALGQTVRITCQGDSLRSYYASWYQQKSGQAPVLVIYGKEKRPSGIPDRFSGSSSGNTASLTITGARAEDEADYYCNSRGSTTDYMVFGGGTQLTVLG",–,–,44,0.0103,233000
"anti-LILRB1 antibody F11 (antibody, human IgG4 S228P, V domains shown, human IgG4, lambda light chain; also called Antibody clone F11) VH: EVQLVESGGGLVQPGGSLKLSCAASGFTFSSYAMSWVRRAPGKGLEWVSTISGSGDSTYYADSVKGRFTISRDNSKNTLYLQMNNLRAEDTAVYYCAREWELGDAFDIWGRGTLVTVSS VL: QSVLTQPPSTSGTPGQTFSIFCSGSSSNIGTNTVNWYQQLPGTAPKLLIYSNDQRPSGVPDRFSGSKSGTSASLAISGLQSEDEADYYCETWDDSLKGPVFGGGTKVTVLG",–,–,2.26,0.000615,272000
"anti-LILRB1 antibody A11 (antibody, human IgG4 S228P, V domains shown, human IgG4, kappa light chain; also called Antibody clone A11) VH: EVQLLESGGGLEQPGGFLRLSCAASGFSFTSYAMTWVRQAPGKGLEWVSGISSDGTTTTYADSVRGRFTISRDNAKNTVYLQMNSLRDEDTAVYYCARDQLLGWDALNVWGQGTMVTVSS VL: not shown",–,–,5450,0.000981,180
"anti-LILRB1 antibody F12 (antibody, human IgG4 S228P, V domains shown, human IgG4, lambda light chain; also called Antibody clone F12) VH: QVQLVQSGAEVKKPGESLKISCKGSGYSFTSYWIGWVRQMPGKGLEWMGIIYPGDSDTRYSPSFQGQVTISADKSISTAYLQWSSLKASDTAMYYCASQYYDGGYYMDVWGQGTLVTVSS VL: QSVLTQPASVSGSPGQSITISCAGTSSDIGDYDYVSWYQQHPGKTPKLMIYDVSRRPSGVPDRFSGSKSGNTASLTISGLQTEDEADYYCASYTSSSVVVFGGGTKLTVLG",38,262000,3.46,0.000973,281000
"anti-LILRB1 antibody G6 (antibody, human IgG4 S228P, V domains shown, human IgG4, lambda light chain; also called Antibody clone G6) VH: EVQLVESGAEVKKPGASVKVSCKASGYTFTSYYMHWVRQAPGQGLEWMGGIIPIFGTANYAQKFQGRVTITADESTSTAYMELSSLRSEDTAVYYCARGWGYSSSFDYWGQGTTVTVSS VL: SYELTQDPAVSVALGQTVTITCQGDSLRRYYATWYQQKPGQAPVLVIYGQNYRPSGIPDRFSGSNSGTTASLTITGAQAEDEADYYCNSRDSSGNHVVFGGGTKLTVLG",–,–,59.1,0.0152,258000
"anti-LILRB1 antibody B3 (antibody, human IgG4 S228P, V domains shown, human IgG4, kappa light chain; also called Antibody clone B3) VH: EVQLLESGGGLVQPGRSLRLSCAASGFTFDDYAMHWVRQAPGKGLEWVSGISWNSGSIGYADSVKGRFTISRDNSKNTLYLQMNSLRAEDTAVYYCARVGDSSGWSDAFDIWGQGTMVTVSS VL: not shown",–,–,99.8,0.00149,14900
